In assay [1] the target is β1-integrin on mouse embryonic stem cells (mouse) (UniProt P09055). The assay is described as follows: cell-based or functional assay.
In assay [2] the target is T1, human recombinant laminin-511 (human, UniProt O15230 36-3695; P07942 22-1786; P11047 34-1609).
T1 construct: Coated on plates (30 ug/ml) in the adhesion assays; also called laminin-10
The assay is described as follows: summary of the adhesion-blocking assays. As to the method:
Attachment assay was performed as described ([Extracellular Matrix Protocols, 2000). Briefly, MaxiSorp 96-well plates (Nunc) coated by extracellular matrix proteins as described above and blocked by 1% heat-denatured BSA solution. Undifferentiated embryonic cells were plated at cell density of 800 cell/mm² upon extracellular matrix-coated plates and were left to adhere for 1 hour at 37° C. Non-adherent cells were washed away, and adherent cells were fixed for 20 min by 5% glutaraldehyde, stained by 0.1% Crystal Violet.
Adhesion-blocking assays were performed as described previously. […] Non-attached cells were removed and the remaining cells were fixed, stained and quantified as described above (Cell adhesion assay). Error bars show standard error (SEM).

Turning to “human recombinant laminin-511, O15230 36-3695; P07942 22-1786; P11047 34-1609”, in assay [1], the Blocking those integrins inhibits ES cell adhesion to LN-511 was found to be 100%.

B1: α6β1 integrin on mouse embryonic stem cells (receptor)
chain 1: FNLDTREDNVIRKSGDPGSLFGFSLAMHWQLQPEDKRLLLVGAPRAEALPLQRANRTGGLYSCDITSRGPCTRIEFDNDADPMSESKEDQWMGVTVQSQGPGGKVVTCAHRYEKRQHVNTKQESRDIFGRCYVLSQNLRIEDDMDGGDWSFCDGRLRGHEKFGSCQQGVAATFTKDFHYIVFGAPGTYNWKGIVRVEQKNNTFFDMNIFEDGPYEVGGETDHDESLVPVPANSYLGFSLDSGKGIVSKDDITFVSGAPRANHSGAVVLLKRDMKSAHLLPEYIFDGEGLASSFGYDVAVVDLNADGWQDIVIGAPQYFDRDGEVGGAVYVYINQQGKWSNVKPIRLNGTKDSMFGISVKNIGDINQDGYPDIAVGAPYDDLGKVFIYHGSPTGIITKPTQVLEGTSPYFGYSIAGNMDLDRNSYPDLAVGSLSDSVTIFRSRPVINILKTITVTPNRIDLRQKSMCGSPSGICLKVKACFEYTAKPSGYNPPISILGILEAEKERRKSGLSSRVQFRNQGSEPKYTQELTLNRQKQRACMEETLWLQENIRDKLRPIPITASVEIQEPSSRRRVNSLPEVLPILNSNEAKTVQTDVHFLKEGCGDDNVCNSNLKLEYKFGTREGNQDKFSYLPIQKGIPELVLKDQKDIALEITVTNSPSDPRNPRKDGDDAHEAKLIATFPDTLTYSAYRELRAFPEKQLSCVANQNGSQADCELGNPFKRNSSVTFYLILSTTEVTFDTTDLDINLKLETTSNQDNLAPITAKAKVVIELLLSVSGVAKPSQVYFGGTVVGEQAMKSEDEVGSLIEYEFRVINLGKPLKNLGTATLNIQWPKEISNGKWLLYLMKVESKGLEQIVCEPHNEINYLKLKESHNSRKKRELPEKQIDDSRKFSLFPERKYQTLNCSVNVRCVNIRCPLRGLDSKASLVLRSRLWNSTFLEEYSKLNYLDILLRASIDVTAAAQNIKLPHAGTQVRVTVFPSKTVAQYSGVAWWIILLAVLAGILMLALLVFLLWKCGFFKRSRYDDSIPRYHAVRIRKEEREIKDEKHMDNLEKKQWITKWNENESYS
chain 2: QTDKNRCLKANAKSCGECIQAGPNCGWCTNTTFLQEGMPTSARCDDLEALKKKGCQPSDIENPRGSQTIKKNKNVTNRSKGMAEKLRPEDITQIQPQQLLLKLRSGEPQKFTLKFKRAEDYPIDLYYLMDLSYSMKDDLENVKSLGTDLMNEMRRITSDFRIGFGSFVEKTVMPYISTTPAKLRNPCTSEQNCTSPFSYKNVLSLTDRGEFFNELVGQQRISGNLDSPEGGFDAIMQVAVCGSLIGWRNVTRLLVFSTDAGFHFAGDGKLGGIVLPNDGQCHLENNVYTMSHYYDYPSIAHLVQKLSENNIQTIFAVTEEFQPVYKELKNLIPKSAVGTLSGNSSNVIQLIIDAYNSLSSEVILENSKLPDGVTINYKSYCKNGVNGTGENGRKCSNISIGDEVQFEISITANKCPNKESETIKIKPLGFTEEVEVVLQFICKCNCQSHGIPASPKCHEGNGTFECGACRCNEGRVGRHCECSTDEVNSEDMDAYCRKENSSEICSNNGECVCGQCVCRKRDNTNEIYSGKFCECDNFNCDRSNGLICGGNGVCRCRVCECYPNYTGSACDCSLDTGPCLASNGQICNGRGICECGACKCTDPKFQGPTCETCQTCLGVCAEHKECVQCRAFNKGEKKDTCAQECSHFNLTKVESREKLPQPVQVDPVTHCKEKDIDDCWFYFTYSVNGNNEAIVHVVETPDCPTGPDIIPIVAGVVAGIVLIGLALLLIWKLLMIIHDRREFAKFEKEKMNAKWDTGENPIYKSAVTTVVNPKYEGK
notes: whole, on cells
On to B1, for which the binding result in assay [2] was “binds”.

B2: αVβ1 integrin on mouse embryonic stem cells (receptor)
chain 1: FNLDVESPAEYAGPEGSYFGFAVDFFEPSTSSRMFLLVGAPKANTTQPGIVEGGQVLKCECSSSRRCQPIEFDSTGNRDYAKDDPLEFKSHQWFGASVRSKQDKILACAPLYHWRTEMKQEREPVGTCFLQDGTKTVEYAPCRSKNIDADGQGFCQGGFSIDFTKADRVLLGGPGSFYWQGQLISDQVAEIISKYDPNVYSIKYNNQLATRTAQAIFDDSYLGYSVAVGDFNGDGIEDFVSGVPRAARTLGMVYIYDGKNMSSLHNFTGEQMAAYFGFSVAATDINGDDYADVFIGAPLFMDRGSDGKLQEVGQVSVSLQRAVGDFQTTKLNGFEVFARFGSAIAPLGDLDQDGFNDIAIAAPYGGEDKKGLVYIFNGRSTGLNSVPSQILEGQWAAQSMPPSFGYSMKGATDVDRNGYPDLVVGAFGVDRAVLYRARPVVTVNAGLEVYPSILNQDNKICPLPGTALKVSCFNVRFCLKADGKGTLPRKLHFQVELLLDKLKQKGAIRRALFLHNRSPVHSKTMTVFRGGQMQCEELVAYLRDESEFRDKLTPITIFMEYRLDQRTAADATGLQPILNQFTPANVSRQAHILLDCGEDNVCKPKLEVSVNSDQKKIYIGDDNPLTLTVKAQNQGEGAYEAELIVSIPPQADFIGVVRNNEALARLSCAFKTENQTRQVVCDLGNPMKAGTQLLAGLRFSVHQQSEMDTSVKFDLKIQSSNSFDNVSPVVSYKVDLAVLAAVEIRGVSSPDHIFLPIPNWEYKENPETEEDVGPIVQHIYELRNNGPSSFSKAILNLQWPYKYNNNTLLYILHYDIDGPMNCTADTEINPLRIKTPEKNDTAAAGQGERNHLITKRDLTLREGDVHTLGCGIAKCLQITCQVGRLDRGKSAILYVKSLLWTETFMNKENQNHSYSLKSSASFNIIEFPYKNLPIEDLFNSTLVTTNITWGIQPAPMPVPVWVIILAVLAGLLLLAVLVFVMYRMGFFKRVRPPQEEQEREQLQPHENGEGNSET
chain 2: B1 chain 2
notes: whole, on cells
Regarding B2, in assay [2], the binding result was “binds”.

(Values after US20100323443A1 (BIOLAMINA, published 2010).)
